Experimental data taken from patent US20100172925A1, “HLA-A2-RESTRICTED T-CELL EPITOPES OF THE RESPIRATORY SYNCYTIAL VIRUS FUSION PROTEIN AS PEPTIDE-BASED VACCINES” (priority 2009, published 2010).
Where two headings read alike, the source gives them in different places.

Legend:
[1] = molecular target: HLA-A*0201 molecule on human T2 cells (human); test: T2 cell-stabilization assay, flow cytometry with FITC anti-HLA-A2, peptide 50 µg/mL
[2] = molecular target: HLA-A*0201 molecule on human T2 cells (human); test: T2-based binding assay, flow cytometry with FITC anti-HLA-A2
[3] = molecular target: HLA-A*0201 molecule on human T2 cells (human)

| Binder | MFI ratio (fold of the negative control) [1] | MFI above baseline (% higher than the baseline) [1] | also measured |
| --- | --- | --- | --- |
| LLSTNKAVV (modifications not checked) [RSV F peptide No. 9 (F194-202)] | 1.5 | – | – |
| KIMTSKTDV (modifications not checked) [RSV F peptide No. 17 (F417-425)] | – | – | MFI ratio (ratio to the negative control) [2]: 0.91 |
| SVGNTLYYV (modifications not checked) [RSV F peptide No. 18 (F474-482)] | – | 10 | – |
| TLLLWVLLL (modifications not checked) [RSV F peptide No. 1 (F5-13)] | – | – | MFI above baseline (% higher than the baseline) [3]: 10 |
| ALLSTNKAV (modifications not checked) [RSV F peptide No. 8 (F193-201)] | – | 10 | – |
| LLSLIAVGL (modifications not checked) [RSV F peptide No. 24 (F561-569)] | 1.5 | – | – |
| KVLDLKNYI (modifications not checked) [RSV F peptide No. 13 (F214-222)] | – | 10 | – |
| SLIAVGLLL (modifications not checked) [RSV F peptide No. 25 (F563-571)] | – | 10 | – |
| VILLSLIAV (modifications not checked) [RSV F peptide No. 23 (F559-567)] | 1.5 | – | – |
| KLMSNNVQI (modifications not checked) [RSV F peptide No. 15 (F295-303)] | 1.5 | – | – |
| FLLGVGSAI (modifications not checked) [RSV F peptide No. 6 (F163-171)] | – | 10 | – |
| AITTILAAV (modifications not checked) [RSV F peptide No. 3 (F33-41)] | 1.5 | – | – |
| YMLTNSELL (modifications not checked) [RSV F peptide No. 14 (F273-281)] | 1.5 | – | – |
| LMSNNVQIV (modifications not checked) [RSV F peptide No. 16 (F296-304)] | 1.5 | – | – |
